Assay results reported in patent US20220242962A1 (APTEVO RESEARCH AND DEVELOPMENT, published 2022).

What was measured:
Full-length Cyno 4-1BB = biological target: T1, Full-length Cyno 4-1BB (cynomolgus monkey, UniProt Q07011 24-255 (human entry)); test: binding to cells expressing full length cyno 41BB
T1 construct: on Jurkat or CHO cells; also called FOB006; cynomolgus 4-1BB
T1 chain: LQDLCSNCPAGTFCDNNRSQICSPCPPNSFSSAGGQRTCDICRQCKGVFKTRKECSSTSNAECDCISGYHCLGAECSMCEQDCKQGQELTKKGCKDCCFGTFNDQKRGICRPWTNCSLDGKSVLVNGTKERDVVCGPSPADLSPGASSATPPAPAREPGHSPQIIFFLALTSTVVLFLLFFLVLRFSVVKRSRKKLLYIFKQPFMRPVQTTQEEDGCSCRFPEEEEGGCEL

Full-length Human 4-1BB = biological target: T2, Full-length Human 4-1BB (human, UniProt Q07011 24-255); test: binding to cells expressing full length human 41BB
T2 construct: also called FOB005; CD137

binding result (Full-length Cyno 4-1BB): binds | binding result (Full-length Human 4-1BB): binds
B1: Clone 6 anti-41BB murine monoclonal antibody (antibody, V domains shown)
VH: QVQLQQPGAELVKPGASVKLSCKASGYTFTSYWINWVKQRPGQGLEWIGNIYPGSSTTNYNEKFKSKATLTVDTSSSTAYMQLSSLTSDDSAVFYCASFSDGYYAYAMDYWVQGTSVTVSS
VL: DIQMTQTTSSLSASLGDRVTITCRASQDISNYLNWYQQKPDGTVKLLIYYTSRLHSGVPSRFSGGGSGTDYSLTISNLEQEDIATYFCQQGYTLPYTFGGGTKLEIK
notes: hybridoma-derived mouse antibody; also called mAb Clone 6; mouse clone 6
